Publication PMC10106849

Molecular target: T1, RsCDF3 (Raphanus sativus, UniProt A0A6J0K2F2 1-435)
T1 sequence: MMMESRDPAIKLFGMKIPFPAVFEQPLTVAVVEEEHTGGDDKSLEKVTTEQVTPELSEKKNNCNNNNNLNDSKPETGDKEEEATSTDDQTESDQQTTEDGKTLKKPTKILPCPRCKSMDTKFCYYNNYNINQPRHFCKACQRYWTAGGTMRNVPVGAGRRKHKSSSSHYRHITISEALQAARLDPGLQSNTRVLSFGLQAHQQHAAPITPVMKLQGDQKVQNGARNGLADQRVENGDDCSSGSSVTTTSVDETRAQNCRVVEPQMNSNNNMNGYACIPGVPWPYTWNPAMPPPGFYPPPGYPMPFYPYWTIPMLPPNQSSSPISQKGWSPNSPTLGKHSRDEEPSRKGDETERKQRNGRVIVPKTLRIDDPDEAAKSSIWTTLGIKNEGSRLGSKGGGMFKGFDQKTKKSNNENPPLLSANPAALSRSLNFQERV
Assay: competition

B1: mP1 mutated probe (dsDNA)
DNA 1: AATACACATTTATAATGTCTAGTTAAACTTAC
DNA 2: GTAAGTTTAACTAGACATTATAAATGTGTATT
Question: Does B1 bind?
Answer: Result: no binding
